Results published in patent CN112010969A (UNIV NANCHANG, dated 2020).

Target: T1, 增强绿色荧光蛋白 (enhanced green fluorescent protein, EGFP) (Aequorea victoria (engineered mutant), UniProt P42212 1-238 = GFP, limits assumed)
T1 construct: also called EGFP蛋白
Experiment: biolayer interferometry: nanobody coupled by EDC/s-NHS to AR2G probe, association 300 s, dissociation 120 s in PBS

B1: 高亲和力增强绿色荧光蛋白纳米抗体 (anti-EGFP nanobody), clone 4-28 (VHH)
VHH: QVQLVESGGGLVQPGGSLRLSCAASGSRFSIHTMGWYRQAPGKQRELVATITWGGRQNYADSVKGRFTINRDNDKNTVDLQMDSLKPEDTAVYYCNVRPISNGPDYWGQGTQVTVSS
notes: Alpaca VHH selected by phage display; The purified protein was about 20 kD by SDS-PAGE; also called 抗EGFP纳米抗体; 编号4-28; not shown: Expressed from PET25b in E. coli Rosetta and purified on a nickel column
  Kd: 0.0967 nM
